Source: the Human Domainome abundance scans (Beltran et al. 2025)
± gives the uncertainty stated by the source.

B1: Intersectin-1, residues 909 to 971; numbered along this chain, Q15811 (parent)
chain: QGEKVEGLQAQALYPWRAKKDNHLNFNKNDVITVLEQQDMWWFGEVQGQKGWFPKSYVKLISG

Variants of: B1
Experiment: abundance fitness (aPCA) (normalised: wild type 0, dead -1); higher = more abundant; growth selection in yeast, the domain comes from the species named
Details: Homo sapiens

Variant | abundance fitness
Q1M | -0.208 ± 0.31
Q1T | -0.111 ± 0.28
Q1K | -0.496 ± 0.11
Q1R | -0.299 ± 0.13
Q1E | -0.335 ± 0.31
Q1V | 0.158 ± 0.4
T33Y | -0.016 ± 0.29
T33P | -0.897 ± 0.19
T33W | -0.175 ± 0.072
T33A | -0.071 ± 0.069
T33M | -0.068 ± 0.36
T33G | -0.196 ± 0.046
Y57L | 0.013 ± 0.13
Y57N | 0.212 ± 0.41
Y57R | -0.013 ± 0.08
Y57I | -0.289 ± 0.28
Y57A | 0.12 ± 0.11
Y57E | -0.243 ± 0.22
F53V | -0.677 ± 0.29
F53M | -0.543 ± 0.47
F53Y | -0.666 ± 0.42
R17E | -0.049 ± 0.18
R17S | -0.043 ± 0.11
R17T | -0.097 ± 0.18

Variant | abundance fitness
R17L | -0.021 ± 0.11
R17M | -0.081 ± 0.23
Q11W | -0.098 ± 0.14
Q11S | -0.066 ± 0.086
Q11V | -0.364 ± 0.16
Q11T | -0.098 ± 0.13
Q11P | -1.03 ± 0.42
L13G | -0.709 ± 0.13
L13V | 0.091 ± 0.12
L13T | -0.233 ± 0.18
L13R | -0.126 ± 0.11
Q49R | -0.031 ± 0.081
Q49Y | -0.303 ± 0.31
Q49E | 0.222 ± 0.29
Q49C | 0.046 ± 0.16
V31W | -0.132 ± 0.041
V31R | -0.03 ± 0.028
V31A | -0.274 ± 0.038
V31S | -0.224 ± 0.027
V31C | -0.08 ± 0.035
V31Q | -0.102 ± 0.038
V31P | -0.325 ± 0.036
Q37K | 0.149 ± 0.28
Q37H | -0.274 ± 0.31

Variant | abundance fitness
Q37T | -0.052 ± 0.18
Q37S | -0.294 ± 0.14
V46S | -0.001 ± 0.13
V46G | -0.193 ± 0.073
V46R | -0.1 ± 0.082
V46C | 0.012 ± 0.18
V46I | -0.11 ± 0.11
V46H | 0.035 ± 0.2
G44T | -0.604 ± 0.28
G44P | -1.11 ± 0.41
G44C | -0.79 ± 0.46
L24S | -0.867 ± 0.14
L24N | -0.563 ± 0.19
L24Q | -0.694 ± 0.27
L24D | -1.26 ± 0.4
L24F | -0.466 ± 0.27
L24A | -0.436 ± 0.061
L24M | -0.611 ± 0.17
F26V | -0.335 ± 0.12
F26G | -1.02 ± 0.19
F26C | -0.723 ± 0.35
F26S | -0.866 ± 0.29
F26L | -0.078 ± 0.11
F26A | -0.767 ± 0.23

Variant | abundance fitness
I61M | -0.383 ± 0.18
I61L | 0.002 ± 0.078
I61E | -0.088 ± 0.13
I61F | 0.08 ± 0.29
I32E | -1.03 ± 0.3
I32P | -0.42 ± 0.21
I32M | -0.446 ± 0.12
I32V | -0.052 ± 0.062
I32K | -0.965 ± 0.29
I32A | -0.7 ± 0.11
D39Y | -0.208 ± 0.27
D39T | -0.009 ± 0.2
D39A | -0.014 ± 0.093
D39P | -0.297 ± 0.15
D39V | -0.304 ± 0.14
D39W | -0.588 ± 0.16
Q38P | -0.313 ± 0.16
Q38W | -0.286 ± 0.15
Q38L | -0.056 ± 0.21
G51R | -0.89 ± 0.26
G7Q | 0.164 ± 0.41
G7V | 0.076 ± 0.33
E3S | -0.319 ± 0.25
E3V | -0.293 ± 0.15

Variant | abundance fitness
E3C | -0.153 ± 0.29
E3K | -0.079 ± 0.18
E36K | 0.017 ± 0.26
E36M | -0.177 ± 0.22
E36Y | -0.279 ± 0.24
V34W | -0.524 ± 0.15
V34C | -0.427 ± 0.28
F43G | -0.596 ± 0.16
F43A | -0.696 ± 0.13
F43V | -0.923 ± 0.18
F43K | -0.202 ± 0.11
F43S | -0.546 ± 0.13
F43C | -0.563 ± 0.33
W41T | -0.659 ± 0.23
W41C | -0.318 ± 0.096
W41N | -0.154 ± 0.15
W41K | -0.427 ± 0.31
W41E | -0.59 ± 0.17
W41A | -0.489 ± 0.13
W41I | -0.815 ± 0.45
W41H | -0.36 ± 0.2
G48P | -0.604 ± 0.35
G48Q | -0.38 ± 0.2
G48K | -0.053 ± 0.18

Variant | abundance fitness
G48T | -0.526 ± 0.22
G48Y | -0.074 ± 0.21
G48E | 0.011 ± 0.15
G48D | -0.061 ± 0.18
W52V | -0.944 ± 0.25
W52G | -1.18 ± 0.39
W52M | -0.804 ± 0.46
W52Q | -0.776 ± 0.46
W52P | -0.721 ± 0.27
W52R | -1 ± 0.21
W52A | -0.708 ± 0.41
E6R | -0.108 ± 0.097
E6S | -0.16 ± 0.12
E6I | -0.29 ± 0.23
E6F | -0.178 ± 0.24
K50Q | -0.308 ± 0.17
K50A | -0.183 ± 0.1
K50N | 0.014 ± 0.16
K50S | -0.139 ± 0.11
K50W | -0.255 ± 0.23
K50R | 0.056 ± 0.12
K50V | -0.26 ± 0.12
K50P | -0.242 ± 0.28
K50I | -0.224 ± 0.21

Variant | abundance fitness
Q47F | 0.133 ± 0.2
Q47C | -0.332 ± 0.14
Q47V | -0.097 ± 0.076
Q47P | -0.293 ± 0.19
D30C | -0.166 ± 0.07
D30R | -0.778 ± 0.049
D30T | -0.15 ± 0.039
D30P | -0.759 ± 0.069
D30G | -0.75 ± 0.055
D30Y | -0.469 ± 0.069
D30V | -0.357 ± 0.035
D30W | -0.331 ± 0.054
N22L | -0.279 ± 0.17
N22A | -0.118 ± 0.11
N22T | 0.003 ± 0.14
N22H | -0.301 ± 0.25
N22G | -0.018 ± 0.074
N22R | -0.142 ± 0.079
A10C | -0.174 ± 0.36
A10M | -0.223 ± 0.15
A10S | -0.506 ± 0.12
P15F | -0.224 ± 0.32
P15E | 0.054 ± 0.12
